Reference: patent US20060099643A1, “Method for determining the regulation of xenobiotic removal” (priority 2002, published 2006)

T1: ER-α (UniProt P03372 297-554, limits assumed)
T1 construct: also called estrogen receptor alpha
T1 sequence (looked up): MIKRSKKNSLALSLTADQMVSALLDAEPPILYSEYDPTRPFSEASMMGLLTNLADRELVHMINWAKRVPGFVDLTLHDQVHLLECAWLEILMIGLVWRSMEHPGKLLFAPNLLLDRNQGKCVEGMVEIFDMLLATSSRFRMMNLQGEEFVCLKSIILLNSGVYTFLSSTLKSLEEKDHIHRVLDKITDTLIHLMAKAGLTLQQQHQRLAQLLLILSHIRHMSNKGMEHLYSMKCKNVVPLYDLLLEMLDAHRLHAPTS

T2: SXR (UniProt O75469 130-434, limits assumed)
T2 construct: also called steroid and xenobiotic receptor; steroid X receptor
T2 sequence (looked up): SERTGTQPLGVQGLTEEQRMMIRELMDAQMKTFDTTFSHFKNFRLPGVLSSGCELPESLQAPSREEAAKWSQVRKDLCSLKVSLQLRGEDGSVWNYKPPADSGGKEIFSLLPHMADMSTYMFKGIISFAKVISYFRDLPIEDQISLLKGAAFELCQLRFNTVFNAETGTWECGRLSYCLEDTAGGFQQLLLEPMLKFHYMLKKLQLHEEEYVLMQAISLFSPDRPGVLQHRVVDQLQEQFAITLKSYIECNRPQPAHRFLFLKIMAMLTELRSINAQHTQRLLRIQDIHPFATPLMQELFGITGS


Experiments:
[1] = molecular target: T1, ER-α; assay: Thermofluor thermal shift; ER-α 8 µM with estradiol 20 µM; peptide 100 µM
[2] = molecular target: T2, SXR; assay: Thermofluor thermal shift; SXR 6 µM with androsterone 50 µM; peptide 100 µM
[3] = molecular target: T3, ER-β (UniProt Q92731 256-505, limits assumed); assay: Thermofluor thermal shift; ER-β 8 µM with ICI-182780 20 µM; peptide 100 µM
T3 construct: also called estrogen receptor beta

[4] = molecular target: T2, SXR; assay: Thermofluor thermal shift; SXR 6 µM with clofibrate 50 µM; peptide 100 µM
[5] = molecular target: T1, ER-α; assay: Thermofluor thermal shift; ER-α 8 µM with ICI-182780 20 µM; peptide 100 µM
[6] = molecular target: T1, ER-α; assay: Thermofluor thermal shift; ER-α 8 µM with 4-OH-tamoxifen 20 µM; peptide 100 µM
[7] = molecular target: T2, SXR; assay: Thermofluor thermal shift; SXR 6 µM with 17-α-hydroxyprogesterone 50 µM; peptide 100 µM
[8] = molecular target: T2, SXR; assay: Thermofluor thermal shift; SXR 6 µM with hydrocortisone 50 µM; peptide 100 µM
[9] = molecular target: T3, ER-β; assay: Thermofluor thermal shift; ER-β 8 µM with tamoxifen 20 µM; peptide 100 µM
[10] = molecular target: T2, SXR; assay: Thermofluor thermal shift; SXR 6 µM with lovastatin 50 µM; peptide 100 µM
[11] = molecular target: T2, SXR; assay: Thermofluor thermal shift; SXR 6 µM with cortisone 50 µM; peptide 100 µM
[12] = molecular target: T1, ER-α; assay: Thermofluor thermal shift; ER-α 8 µM with tamoxifen 20 µM; peptide 100 µM
[13] = molecular target: T2, SXR; assay: Thermofluor thermal shift; SXR 6 µM with taxol 50 µM; peptide 100 µM
[14] = molecular target: T2, SXR; assay: Thermofluor thermal shift; SXR 6 µM with estradiol 50 µM; peptide 100 µM
[15] = molecular target: T1, ER-α; assay: Thermofluor thermal shift; ER-α 8 µM with 17-α-ethylene-E2 20 µM; peptide 100 µM
[16] = molecular target: T1, ER-α; assay: Thermofluor thermal shift; ER-α 8 µM, no ligand; peptide 100 µM
[17] = molecular target: T3, ER-β; assay: Thermofluor thermal shift; ER-β 8 µM with estrone 20 µM; peptide 100 µM
[18] = molecular target: T2, SXR; assay: Thermofluor thermal shift; SXR 6 µM with lithocholic acid 50 µM; peptide 100 µM
[19] = molecular target: T2, SXR; assay: Thermofluor thermal shift; SXR 6 µM, ligand free; peptide 100 µM
[20] = molecular target: T2, SXR; assay: Thermofluor thermal shift; SXR 6 µM with 11-α-hydroxy-progesterone 50 µM; peptide 100 µM
[21] = molecular target: T3, ER-β; assay: Thermofluor thermal shift; ER-β 8 µM with estradiol 20 µM; peptide 100 µM
[22] = molecular target: T3, ER-β; assay: Thermofluor thermal shift; ER-β 8 µM, no ligand; peptide 100 µM
[23] = molecular target: T3, ER-β; assay: Thermofluor thermal shift; ER-β 8 µM with 4-OH-tamoxifen 20 µM; peptide 100 µM
[24] = molecular target: T3, ER-β; assay: Thermofluor thermal shift; ER-β 8 µM with 17-α-ethylene-E2 20 µM; peptide 100 µM
[25] = molecular target: T2, SXR; assay: Thermofluor thermal shift; SXR 6 µM with 4-androstene 50 µM; peptide 100 µM
[26] = molecular target: T2, SXR; assay: Thermofluor thermal shift; SXR 6 µM with corticosterone 50 µM; peptide 100 µM
[27] = molecular target: T1, ER-α; assay: Thermofluor thermal shift; ER-α 8 µM with estrone 20 µM; peptide 100 µM
[28] = molecular target: T3, ER-β; assay: Thermofluor thermal shift; ER-β 8 µM with 2-methoxy-E2 20 µM; peptide 100 µM
[29] = molecular target: T1, ER-α; assay: Thermofluor thermal shift; ER-α 8 µM with 2-methoxy-E2 20 µM; peptide 100 µM
[30] = molecular target: T3, ER-β; assay: Thermofluor thermal shift; ER-β 8 µM with ICI-182780 20 µM; SRC-3 11 µM
[31] = molecular target: T1, ER-α; assay: Thermofluor thermal shift; ER-α 8 µM with estrone 20 µM; SRC-3 11 µM
[32] = molecular target: T3, ER-β; assay: Thermofluor thermal shift; ER-β 8 µM with estrone 20 µM; SRC-3 11 µM
[33] = molecular target: T1, ER-α; assay: Thermofluor thermal shift; ER-α 8 µM with 17-α-ethylene-E2 20 µM; SRC-3 11 µM
[34] = molecular target: T1, ER-α; assay: Thermofluor thermal shift; ER-α 8 µM with 4-OH-tamoxifen 20 µM; SRC-3 11 µM
[35] = molecular target: T3, ER-β; assay: Thermofluor thermal shift; ER-β 8 µM with 4-OH-tamoxifen 20 µM; SRC-3 11 µM
[36] = molecular target: T1, ER-α; assay: Thermofluor thermal shift; ER-α 8 µM with estradiol 20 µM; SRC-3 11 µM
[37] = molecular target: T3, ER-β; assay: Thermofluor thermal shift; ER-β 8 µM with tamoxifen 20 µM; SRC-3 11 µM
[38] = molecular target: T3, ER-β; assay: Thermofluor thermal shift; ER-β 8 µM, no ligand; SRC-3 11 µM
[39] = molecular target: T1, ER-α; assay: Thermofluor thermal shift; ER-α 8 µM with ICI-182780 20 µM; SRC-3 11 µM
[40] = molecular target: T3, ER-β; assay: Thermofluor thermal shift; ER-β 8 µM with estradiol 20 µM; SRC-3 11 µM
[41] = molecular target: T1, ER-α; assay: Thermofluor thermal shift; ER-α 8 µM with tamoxifen 20 µM; SRC-3 11 µM
[42] = molecular target: T1, ER-α; assay: Thermofluor thermal shift; ER-α 8 µM, no ligand; SRC-3 11 µM
[43] = molecular target: T3, ER-β; assay: Thermofluor thermal shift; ER-β 8 µM with 2-methoxy-E2 20 µM; SRC-3 11 µM
[44] = molecular target: T3, ER-β; assay: Thermofluor thermal shift; ER-β 8 µM with 17-α-ethylene-E2 20 µM; SRC-3 11 µM
[45] = molecular target: T1, ER-α; assay: Thermofluor thermal shift; ER-α 8 µM with 2-methoxy-E2 20 µM; SRC-3 11 µM

T3 sequence (Q92731 256-505 limits assumed): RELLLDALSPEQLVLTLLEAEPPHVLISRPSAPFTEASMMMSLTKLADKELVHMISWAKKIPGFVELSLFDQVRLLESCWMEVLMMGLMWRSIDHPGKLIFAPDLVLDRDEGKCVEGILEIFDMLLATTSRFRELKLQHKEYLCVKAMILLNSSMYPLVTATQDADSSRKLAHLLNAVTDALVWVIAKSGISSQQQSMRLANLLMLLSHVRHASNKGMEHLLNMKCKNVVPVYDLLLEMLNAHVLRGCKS

Molecule	change in Tm stabilization from the receptor-ligand ΔTm [1]	ΔΔTm [2]	change in Tm stabilization from the receptor-ligand ΔTm [3]	ΔΔTm [4]	change in Tm stabilization from the receptor-ligand ΔTm [5]	change in Tm stabilization from the receptor-ligand ΔTm [6]	ΔΔTm [7]	ΔΔTm [8]	change in Tm stabilization from the receptor-ligand ΔTm [9]	ΔΔTm [10]	ΔΔTm [11]	change in Tm stabilization from the receptor-ligand ΔTm [12]	ΔΔTm [13]	ΔΔTm [14]	change in Tm stabilization from the receptor-ligand ΔTm [15]	change in Tm stabilization from the receptor-ligand ΔTm [16]	change in Tm stabilization from the receptor-ligand ΔTm [17]	ΔΔTm [18]	ΔΔTm [19]	ΔΔTm [20]	other results
co-repressor peptide NCoR-1 (from UniProt O75376 2044-2066)	0 °C	3.8 °C	0.3 °C	3.4 °C	-0.6	0.1 °C	3.5 °C	3.7 °C	0.4 °C	1.2 °C	3.6 °C	0.1 °C	4.7 °C	2.3 °C	-0.1 °C	0 °C	-0.3	1.4 °C	6.7 °C	1 °C	change in Tm stabilization from the receptor-ligand ΔTm [21]: 0 °C; change in Tm stabilization from the receptor-ligand ΔTm [22]: -0.4 °C; change in Tm stabilization from the receptor-ligand ΔTm [23]: 0.3; change in Tm stabilization from the receptor-ligand ΔTm [24]: -0.7; ΔΔTm [25]: 3.6 °C; ΔΔTm [26]: 0.5 °C; change in Tm stabilization from the receptor-ligand ΔTm [27]: -0.3; change in Tm stabilization from the receptor-ligand ΔTm [28]: -0.7; change in Tm stabilization from the receptor-ligand ΔTm [29]: -0.7 °C
co-activator protein SRC-3 (from UniProt Q9Y6Q9 627-829)	–	–	–	–	–	–	–	–	–	–	–	–	–	–	–	–	–	–	–	–	change in Tm stabilization from the receptor-ligand ΔTm [30]: 0.9 °C; change in Tm stabilization from the receptor-ligand ΔTm [31]: 3.5 °C; change in Tm stabilization from the receptor-ligand ΔTm [32]: 1.6 °C; change in Tm stabilization from the receptor-ligand ΔTm [33]: 4.5 °C; change in Tm stabilization from the receptor-ligand ΔTm [34]: 0.2; change in Tm stabilization from the receptor-ligand ΔTm [35]: 1.2 °C; change in Tm stabilization from the receptor-ligand ΔTm [36]: 3.8 °C; change in Tm stabilization from the receptor-ligand ΔTm [37]: 1.3; change in Tm stabilization from the receptor-ligand ΔTm [38]: 0.9; change in Tm stabilization from the receptor-ligand ΔTm [39]: 0.5 °C; change in Tm stabilization from the receptor-ligand ΔTm [40]: 1.7; change in Tm stabilization from the receptor-ligand ΔTm [41]: 1.1 °C; change in Tm stabilization from the receptor-ligand ΔTm [42]: 1.5; change in Tm stabilization from the receptor-ligand ΔTm [43]: 2.5 °C; change in Tm stabilization from the receptor-ligand ΔTm [44]: 2.6; change in Tm stabilization from the receptor-ligand ΔTm [45]: 5.3
LTERHKILHRLLQEGSPSD (peptide, UniProt Q15788 683-701, looked up, Peptide fragment of SRC-1) [co-activator peptide SRC1-NR2]	4.9	3.5	0.4	3.3	0.2	0.2	3.3	3.3	0.2	3	2.9	-0.5	2.5	3.9	4.5	0.8	3.8	2.9	2.9	4.6	change in Tm stabilization from the receptor-ligand ΔTm [21]: 3.4; change in Tm stabilization from the receptor-ligand ΔTm [22]: 0.7; change in Tm stabilization from the receptor-ligand ΔTm [23]: 0.2; change in Tm stabilization from the receptor-ligand ΔTm [24]: 2.6; ΔΔTm [25]: 2.9; ΔΔTm [26]: 2.7; change in Tm stabilization from the receptor-ligand ΔTm [27]: 3; change in Tm stabilization from the receptor-ligand ΔTm [28]: 4.4; change in Tm stabilization from the receptor-ligand ΔTm [29]: 5.5
